This is an account of results in patent US20220372155A1 (LYVGEN BIOPHARMA, published 2022).

For this experiment, the target named is T1, human CD40 expressed on CHO cells (human, UniProt P25942 21-277).
T1 construct: whole, on cells; also used for the reporter cells over-expressing human CD40; also called cellular CD40; CHO-CD40 cells
Briefly: FACS, CHO cells. On the technique in general: Flow cytometry measures light scatter and fluorescence of single cells or particles in a stream.

T1 sequence (P25942 21-277): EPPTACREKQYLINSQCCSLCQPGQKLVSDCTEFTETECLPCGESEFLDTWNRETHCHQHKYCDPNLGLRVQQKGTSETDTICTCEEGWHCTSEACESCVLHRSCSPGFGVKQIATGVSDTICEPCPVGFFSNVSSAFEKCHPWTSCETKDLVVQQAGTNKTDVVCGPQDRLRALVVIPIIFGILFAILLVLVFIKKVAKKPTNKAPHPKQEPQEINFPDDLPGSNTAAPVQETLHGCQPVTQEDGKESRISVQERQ

B1: Ly417 (bispecific antibody, human IgG1, kappa)
heavy: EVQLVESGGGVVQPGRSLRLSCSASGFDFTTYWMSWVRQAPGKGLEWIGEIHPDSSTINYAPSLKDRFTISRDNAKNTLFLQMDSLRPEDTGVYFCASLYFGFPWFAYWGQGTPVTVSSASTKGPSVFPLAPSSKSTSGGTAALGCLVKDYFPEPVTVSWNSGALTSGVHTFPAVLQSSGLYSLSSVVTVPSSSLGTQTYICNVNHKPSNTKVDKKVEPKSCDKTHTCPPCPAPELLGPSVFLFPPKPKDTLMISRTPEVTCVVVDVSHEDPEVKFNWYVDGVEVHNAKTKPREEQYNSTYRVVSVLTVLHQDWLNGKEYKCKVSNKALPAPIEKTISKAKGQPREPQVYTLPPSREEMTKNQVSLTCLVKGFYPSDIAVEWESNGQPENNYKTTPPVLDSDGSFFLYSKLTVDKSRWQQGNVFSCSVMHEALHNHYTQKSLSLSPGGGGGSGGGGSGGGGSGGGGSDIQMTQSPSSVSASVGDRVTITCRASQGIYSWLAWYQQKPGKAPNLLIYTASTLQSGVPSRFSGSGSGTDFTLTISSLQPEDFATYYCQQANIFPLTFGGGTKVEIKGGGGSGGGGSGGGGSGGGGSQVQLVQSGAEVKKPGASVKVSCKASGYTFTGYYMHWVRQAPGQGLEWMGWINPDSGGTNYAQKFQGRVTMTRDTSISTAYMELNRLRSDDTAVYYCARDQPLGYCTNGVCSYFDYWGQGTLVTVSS
light: DIQLTQSPSSLSASVGDRVTITCKASQDVGTSVAWYQQKPGKAPKLLIYWTSTRHTGVPSRFSGSGSGTDFTFTISSLQPEDIATYYCQQYSLYRSFGQGTKVEIKRTVAAPSVFIFPPSDEQLKSGTASVVCLLNNFYPREAKVQWKVDNALQSGNSQESVTEQDSKDSTYSLSSTLTLSKADYEKHKVYACEVTHQGLSSPVTKSFNRGEC
notes: Ly311 HC (IgG1 mutated Fc)-Ly253 scFv VL-VH + Ly311 LC
For B1, the binding result is reported as “binds”.

B2: Ly418 (bispecific antibody, human IgG1, kappa)
heavy: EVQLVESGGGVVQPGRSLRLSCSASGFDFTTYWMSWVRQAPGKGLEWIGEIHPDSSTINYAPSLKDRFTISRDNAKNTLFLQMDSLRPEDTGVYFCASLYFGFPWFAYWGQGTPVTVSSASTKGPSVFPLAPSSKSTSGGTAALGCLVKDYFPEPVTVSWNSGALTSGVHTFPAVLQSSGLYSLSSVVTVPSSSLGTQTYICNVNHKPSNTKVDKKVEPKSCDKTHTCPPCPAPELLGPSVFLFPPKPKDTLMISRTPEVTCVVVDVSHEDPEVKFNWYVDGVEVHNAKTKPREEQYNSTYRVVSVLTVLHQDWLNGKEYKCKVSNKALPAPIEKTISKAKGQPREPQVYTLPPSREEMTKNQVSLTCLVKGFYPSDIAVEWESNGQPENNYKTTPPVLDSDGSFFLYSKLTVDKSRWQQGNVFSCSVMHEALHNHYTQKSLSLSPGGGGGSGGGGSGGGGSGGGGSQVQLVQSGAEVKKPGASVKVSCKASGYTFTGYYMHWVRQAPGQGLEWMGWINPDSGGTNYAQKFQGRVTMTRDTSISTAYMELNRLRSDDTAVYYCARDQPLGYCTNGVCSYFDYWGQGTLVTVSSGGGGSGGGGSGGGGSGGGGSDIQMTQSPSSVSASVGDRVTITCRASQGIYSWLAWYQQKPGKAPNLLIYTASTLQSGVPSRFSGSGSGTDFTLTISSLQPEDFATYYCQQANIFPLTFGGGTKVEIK
light: B1 light
notes: Ly311 HC (IgG1 mutated Fc)-Ly253 scFv VH-VL + Ly311 LC
On to B2, for which the binding result was “binds”.

B3: Ly462 (bispecific antibody, human IgG1, kappa)
heavy: QVQLKESGPGLVAPSQSLSITCTVSGFSLTDYGVRWIRQPPGKGLEWLGVIWGGGSTYYNSALKSRLSISKDNSKSQVFLKMNSLQTDDTAMYYCAKEKRRGYYYAMDYWGQGTSVTVSSASTKGPSVFPLAPSSKSTSGGTAALGCLVKDYFPEPVTVSWNSGALTSGVHTFPAVLQSSGLYSLSSVVTVPSSSLGTQTYICNVNHKPSNTKVDKKVEPKSCDKTHTCPPCPAPELLGPSVFLFPPKPKDTLMISRTPEVTCVVVDVSHEDPEVKFNWYVDGVEVHNAKTKPREEQYNSTYRVVSVLTVLHQDWLNGKEYKCKVSNKALPAPIEKTISKAKGQPREPQVYTLPPSREEMTKNQVSLTCLVKGFYPSDIAVEWESNGQPENNYKTTPPVLDSDGSFFLYSKLTVDKSRWQQGNVFSCSVMHEALHNHYTQKSLSLSPGGGGGSGGGGSGGGGSGGGGSDIQMTQSPSSLSASVGDRVTITCKASQNIYIYLNWYQQKPGKAPKLLIYNTNNLQTGVPSRFSGSGSGTDFTLTISSLQPEDFATYYCLQHSSRRTFGGGTKVEIKGGGGSGGGGSGGGGSGGGGSQVQLVESGGGLVQPGGSLKLSCATSGFNFNDYFMNWVRQASGKGLEWVGQIRNKNYNYATYYTESLEGRVTISRDDSKNTAYLQMNSLKTEDTAVYYCTSYYYDGFADYFDYWGQGTTVTVSS
light: ENVLTQSPAIMSASPGEKVTMTCRASSSVSSSYLHWYQQKSGASPKLWIYSTSNLASGVPARFSGSGSGTSYSLTISSVEAEDAATYYCQQYSGYPLTFGGGTKLEIKRTVAAPSVFIFPPSDEQLKSGTASVVCLLNNFYPREAKVQWKVDNALQSGNSQESVTEQDSKDSTYSLSSTLTLSKADYEKHKVYACEVTHQGLSSPVTKSFNRGEC
notes: Ly368 HC-TM740 scFv VL-VH + Ly368 LC
In the case of B3, the binding result was “binds”.

B4: Ly463 (bispecific antibody, human IgG1, kappa)
heavy: QVQLKESGPGLVAPSQSLSITCTVSGFSLTDYGVRWIRQPPGKGLEWLGVIWGGGSTYYNSALKSRLSISKDNSKSQVFLKMNSLQTDDTAMYYCAKEKRRGYYYAMDYWGQGTSVTVSSASTKGPSVFPLAPSSKSTSGGTAALGCLVKDYFPEPVTVSWNSGALTSGVHTFPAVLQSSGLYSLSSVVTVPSSSLGTQTYICNVNHKPSNTKVDKKVEPKSCDKTHTCPPCPAPELLGPSVFLFPPKPKDTLMISRTPEVTCVVVDVSHEDPEVKFNWYVDGVEVHNAKTKPREEQYNSTYRVVSVLTVLHQDWLNGKEYKCKVSNKALPAPIEKTISKAKGQPREPQVYTLPPSREEMTKNQVSLTCLVKGFYPSDIAVEWESNGQPENNYKTTPPVLDSDGSFFLYSKLTVDKSRWQQGNVFSCSVMHEALHNHYTQKSLSLSPGGGGGSGGGGSGGGGSGGGGSQVQLVESGGGLVQPGGSLKLSCATSGFNFNDYFMNWVRQASGKGLEWVGQIRNKNYNYATYYTESLEGRVTISRDDSKNTAYLQMNSLKTEDTAVYYCTSYYYDGFADYFDYWGQGTTVTVSSGGGGSGGGGSGGGGSGGGGSDIQMTQSPSSLSASVGDRVTITCKASQNIYIYLNWYQQKPGKAPKLLIYNTNNLQTGVPSRFSGSGSGTDFTLTISSLQPEDFATYYCLQHSSRRTFGGGTKVEIK
light: B3 light
notes: Ly368 HC-TM740 scFv VH-VL + Ly368 LC
Regarding B4, the binding result is recorded as “binds”.

B5: Ly419 (bispecific antibody, human IgG1, kappa)
heavy: EVQLVESGGGVVQPGRSLRLSCSASGFDFTTYWMSWVRQAPGKGLEWIGEIHPDSSTINYAPSLKDRFTISRDNAKNTLFLQMDSLRPEDTGVYFCASLYFGFPWFAYWGQGTPVTVSSASTKGPSVFPLAPSSKSTSGGTAALGCLVKDYFPEPVTVSWNSGALTSGVHTFPAVLQSSGLYSLSSVVTVPSSSLGTQTYICNVNHKPSNTKVDKKVEPKSCDKTHTCPPCPAPELLGPSVFLFPPKPKDTLMISRTPEVTCVVVDVSHEDPEVKFNWYVDGVEVHNAKTKPREEQYNSTYRVVSVLTVLHQDWLNGKEYKCKVSNKALPAPIEKTISKAKGQPREPQVYTLPPSREEMTKNQVSLTCLVKGFYPSDIAVEWESNGQPENNYKTTPPVLDSDGSFFLYSKLTVDKSRWQQGNVFSCSVMHEALHNHYTQKSLSLSPGK
light: not shown
notes: Ly311 HC (IgG1 mutated Fc) + Ly311 LC-Ly253 scFv VL-VH
As for B5, the binding result is “binds”.

B6: Ly420 (bispecific antibody, human IgG1, kappa)
heavy: B5 heavy
light: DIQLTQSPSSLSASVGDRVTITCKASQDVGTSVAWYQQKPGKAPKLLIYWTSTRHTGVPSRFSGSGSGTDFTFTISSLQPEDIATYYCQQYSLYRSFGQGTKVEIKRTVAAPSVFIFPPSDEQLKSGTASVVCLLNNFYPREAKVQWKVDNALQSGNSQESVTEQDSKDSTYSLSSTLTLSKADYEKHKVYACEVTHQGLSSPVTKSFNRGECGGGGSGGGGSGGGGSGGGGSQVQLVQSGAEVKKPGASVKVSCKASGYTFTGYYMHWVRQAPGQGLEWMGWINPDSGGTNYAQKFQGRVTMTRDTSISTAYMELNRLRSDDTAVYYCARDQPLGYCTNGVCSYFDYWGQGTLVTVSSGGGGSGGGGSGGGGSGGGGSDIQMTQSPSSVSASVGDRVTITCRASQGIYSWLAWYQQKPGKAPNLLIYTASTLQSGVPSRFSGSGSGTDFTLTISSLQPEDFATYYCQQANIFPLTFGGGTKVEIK
notes: Ly311 HC (IgG1 mutated Fc) + Ly311 LC-Ly253 scFv VH-VL
As to B6, the binding result is “binds”.

B7: Ly421 (bispecific antibody, human IgG1, kappa)
heavy: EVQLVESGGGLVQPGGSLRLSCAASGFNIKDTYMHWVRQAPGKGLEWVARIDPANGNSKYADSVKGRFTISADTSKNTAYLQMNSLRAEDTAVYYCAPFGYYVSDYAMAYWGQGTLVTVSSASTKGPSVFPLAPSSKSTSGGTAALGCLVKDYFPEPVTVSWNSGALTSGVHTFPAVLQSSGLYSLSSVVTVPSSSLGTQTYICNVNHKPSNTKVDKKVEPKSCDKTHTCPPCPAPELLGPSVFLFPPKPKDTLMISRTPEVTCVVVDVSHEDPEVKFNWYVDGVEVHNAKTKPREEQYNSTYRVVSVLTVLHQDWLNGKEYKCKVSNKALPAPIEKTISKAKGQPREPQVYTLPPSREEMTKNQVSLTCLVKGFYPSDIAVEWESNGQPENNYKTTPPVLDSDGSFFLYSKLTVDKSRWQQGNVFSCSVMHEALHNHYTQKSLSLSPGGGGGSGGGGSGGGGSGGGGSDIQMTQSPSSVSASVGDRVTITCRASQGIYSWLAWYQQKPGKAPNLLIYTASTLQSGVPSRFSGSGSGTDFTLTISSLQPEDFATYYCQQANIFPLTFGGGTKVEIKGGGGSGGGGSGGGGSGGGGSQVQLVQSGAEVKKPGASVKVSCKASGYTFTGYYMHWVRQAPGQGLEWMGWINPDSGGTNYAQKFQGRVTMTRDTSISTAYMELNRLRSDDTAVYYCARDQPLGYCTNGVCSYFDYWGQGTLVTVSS
light: DIQLTQSPSSLSASVGDRVTITCRAGESVDIFGVGFLHWYQQKPGKAPKLLIYRASNLESGVPSRFSGSGSRTDFTLTISSLQPEDFATYYCQQTNEDPYTFGQGTKVEIKRTVAAPSVFIFPPSDEQLKSGTASVVCLLNNFYPREAKVQWKVDNALQSGNSQESVTEQDSKDSTYSLSSTLTLSKADYEKHKVYACEVTHQGLSSPVTKSFNRGEC
notes: Ly312 HC (IgG1 mutated Fc)-Ly253 scFv VL-VH + Ly312 LC
B7: the binding result was “binds”.

B8: Ly422 (bispecific antibody, human IgG1, kappa)
heavy: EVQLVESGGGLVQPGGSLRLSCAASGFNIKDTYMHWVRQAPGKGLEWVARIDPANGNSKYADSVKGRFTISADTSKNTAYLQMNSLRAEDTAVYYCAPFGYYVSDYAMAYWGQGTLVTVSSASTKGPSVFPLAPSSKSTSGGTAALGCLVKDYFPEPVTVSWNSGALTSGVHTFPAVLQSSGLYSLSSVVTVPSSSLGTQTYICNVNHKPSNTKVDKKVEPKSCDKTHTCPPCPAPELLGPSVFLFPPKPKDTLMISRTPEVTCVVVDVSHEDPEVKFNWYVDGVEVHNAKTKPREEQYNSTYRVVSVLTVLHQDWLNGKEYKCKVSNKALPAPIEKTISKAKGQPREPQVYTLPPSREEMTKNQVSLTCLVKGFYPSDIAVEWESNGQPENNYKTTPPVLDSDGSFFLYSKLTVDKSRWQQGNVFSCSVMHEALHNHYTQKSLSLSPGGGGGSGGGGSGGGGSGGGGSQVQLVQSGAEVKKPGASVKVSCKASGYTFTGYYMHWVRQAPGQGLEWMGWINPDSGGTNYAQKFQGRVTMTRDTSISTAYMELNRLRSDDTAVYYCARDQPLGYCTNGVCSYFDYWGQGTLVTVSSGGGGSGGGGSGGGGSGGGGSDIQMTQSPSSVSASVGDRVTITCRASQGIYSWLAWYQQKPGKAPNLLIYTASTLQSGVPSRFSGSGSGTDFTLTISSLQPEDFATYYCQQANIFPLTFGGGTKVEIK
light: B7 light
notes: Ly312 HC (IgG1 mutated Fc)-Ly253 scFv VH-VL + Ly312 LC
With B8, the binding result was “binds”.

B9: Ly464 (bispecific antibody, human IgG1, kappa)
heavy: QVQLKESGPGLVAPSQSLSITCTVSGFSLTDYGVRWIRQPPGKGLEWLGVIWGGGSTYYNSALKSRLSISKDNSKSQVFLKMNSLQTDDTAMYYCAKEKRRGYYYAMDYWGQGTSVTVSSASTKGPSVFPLAPSSKSTSGGTAALGCLVKDYFPEPVTVSWNSGALTSGVHTFPAVLQSSGLYSLSSVVTVPSSSLGTQTYICNVNHKPSNTKVDKKVEPKSCDKTHTCPPCPAPELLGPSVFLFPPKPKDTLMISRTPEVTCVVVDVSHEDPEVKFNWYVDGVEVHNAKTKPREEQYNSTYRVVSVLTVLHQDWLNGKEYKCKVSNKALPAPIEKTISKAKGQPREPQVYTLPPSREEMTKNQVSLTCLVKGFYPSDIAVEWESNGQPENNYKTTPPVLDSDGSFFLYSKLTVDKSRWQQGNVFSCSVMHEALHNHYTQKSLSLSPG
light: ENVLTQSPAIMSASPGEKVTMTCRASSSVSSSYLHWYQQKSGASPKLWIYSTSNLASGVPARFSGSGSGTSYSLTISSVEAEDAATYYCQQYSGYPLTFGGGTKLEIKRTVAAPSVFIFPPSDEQLKSGTASVVCLLNNFYPREAKVQWKVDNALQSGNSQESVTEQDSKDSTYSLSSTLTLSKADYEKHKVYACEVTHQGLSSPVTKSFNRGECGGGGSGGGGSGGGGSGGGGSDIQMTQSPSSLSASVGDRVTITCKASQNIYIYLNWYQQKPGKAPKLLIYNTNNLQTGVPSRFSGSGSGTDFTLTISSLQPEDFATYYCLQHSSRRTFGGGTKVEIKGGGGSGGGGSGGGGSGGGGSQVQLVESGGGLVQPGGSLKLSCATSGFNFNDYFMNWVRQASGKGLEWVGQIRNKNYNYATYYTESLEGRVTISRDDSKNTAYLQMNSLKTEDTAVYYCTSYYYDGFADYFDYWGQGTTVTVSS
notes: Ly368 HC + Ly368 LC-TM740 scFv VL-VH
For the molecule B9, the binding result is on record as “binds”.

B10: Ly415 (bispecific antibody, human IgG1, kappa)
heavy: EVQLVESGGGLVQPGGSLRLSCAASGFNIKDTYMHWVRQAPGKGLEWVARIDPANGNSKYADSVKGRFTISADTSKNTAYLQMNSLRAEDTAVYYCAPFGYYVSDYAMAYWGQGTLVTVSSASTKGPSVFPLAPSSKSTSGGTAALGCLVKDYFPEPVTVSWNSGALTSGVHTFPAVLQSSGLYSLSSVVTVPSSSLGTQTYICNVNHKPSNTKVDKKVEPKSCDKTHTCPPCPAPELLGPSVFLFPPKPKDTLMISRTPEVTCVVVDVSHEDPEVKFNWYVDGVEVHNAKTKPREEQYNSTYRVVSVLTVLHQDWLNGKEYKCKVSNKALPAPIEKTISKAKGQPREPQVYTLPPSREEMTKNQVSLTCLVKGFYPSDIAVEWESNGQPENNYKTTPPVLDSDGSFFLYSKLTVDKSRWQQGNVFSCSVMHEALHNHYTQKSLSLSPGK
light: DIQLTQSPSSLSASVGDRVTITCRAGESVDIFGVGFLHWYQQKPGKAPKLLIYRASNLESGVPSRFSGSGSRTDFTLTISSLQPEDFATYYCQQTNEDPYTFGQGTKVEIKRTVAAPSVFIFPPSDEQLKSGTASVVCLLNNFYPREAKVQWKVDNALQSGNSQESVTEQDSKDSTYSLSSTLTLSKADYEKHKVYACEVTHQGLSSPVTKSFNRGECGGGGSGGGGSGGGGSGGGGSDIQMTQSPSSLSASVGDRVTITCLASEDISNDLAWYQQKPGKAPKLLIYFVDRLLDGVPSRFSGSGSGTDFTLTISSLQPEDFATYYCQQSYKYPPTFGQGTKLEIKGGGGSGGGGSGGGGSGGGGSEVQLVESGGGLVQPGGSLRLSCAASGFTFTNYGLHWVRQAPGKGLEWVSSISPSGGVTYYRDSVKGRFTISRDNSKNTLYLQMNSLRAEDTAVYYCAKPFLGWGGANWIAHWGQGTLVTVSS
notes: Ly312 HC (IgG1 mutated Fc) + Ly312 LC-TM559 scFv VL-VH
On to B10, for which the binding result is listed as “binds”.

B11: Ly423 (bispecific antibody, human IgG1, kappa)
heavy: B10 heavy
light: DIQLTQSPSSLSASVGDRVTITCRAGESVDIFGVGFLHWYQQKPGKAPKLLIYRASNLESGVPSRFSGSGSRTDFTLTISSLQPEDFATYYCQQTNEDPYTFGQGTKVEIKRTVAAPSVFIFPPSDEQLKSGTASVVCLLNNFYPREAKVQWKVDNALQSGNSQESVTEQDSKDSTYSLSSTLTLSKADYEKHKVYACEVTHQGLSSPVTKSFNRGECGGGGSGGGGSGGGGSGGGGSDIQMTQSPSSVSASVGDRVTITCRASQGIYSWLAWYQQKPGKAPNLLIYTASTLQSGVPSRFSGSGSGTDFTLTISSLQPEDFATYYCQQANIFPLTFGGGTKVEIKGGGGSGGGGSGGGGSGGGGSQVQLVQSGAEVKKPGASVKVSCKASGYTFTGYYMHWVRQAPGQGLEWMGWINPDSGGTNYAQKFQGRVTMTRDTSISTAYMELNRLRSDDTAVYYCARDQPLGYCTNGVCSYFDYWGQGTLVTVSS
notes: Ly312 HC (IgG1 mutated Fc) + Ly312 LC-Ly253 scFv VL-VH
With B11, the binding result was “binds”.

B12: Ly424 (bispecific antibody, human IgG1, kappa)
heavy: B10 heavy
light: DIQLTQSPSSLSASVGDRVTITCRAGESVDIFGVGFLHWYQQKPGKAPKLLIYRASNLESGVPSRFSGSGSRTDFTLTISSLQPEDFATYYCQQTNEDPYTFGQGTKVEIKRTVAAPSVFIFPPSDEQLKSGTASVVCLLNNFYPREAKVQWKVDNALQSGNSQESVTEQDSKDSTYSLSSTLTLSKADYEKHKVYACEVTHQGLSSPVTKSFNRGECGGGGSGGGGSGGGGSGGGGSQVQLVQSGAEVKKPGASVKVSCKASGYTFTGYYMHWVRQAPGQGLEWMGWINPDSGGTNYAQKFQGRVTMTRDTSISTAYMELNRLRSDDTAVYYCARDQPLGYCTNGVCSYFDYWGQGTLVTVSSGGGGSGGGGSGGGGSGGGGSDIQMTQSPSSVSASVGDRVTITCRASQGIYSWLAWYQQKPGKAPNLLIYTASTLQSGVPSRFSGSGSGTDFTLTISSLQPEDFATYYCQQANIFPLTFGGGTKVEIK
notes: Ly312 HC (IgG1 mutated Fc) + Ly312 LC-Ly253 scFv VH-VL
Consider B12, for which the binding result is reported as “binds”.

B13: Ly416 (bispecific antibody, human IgG1, kappa)
heavy: B10 heavy
light: DIQLTQSPSSLSASVGDRVTITCRAGESVDIFGVGFLHWYQQKPGKAPKLLIYRASNLESGVPSRFSGSGSRTDFTLTISSLQPEDFATYYCQQTNEDPYTFGQGTKVEIKRTVAAPSVFIFPPSDEQLKSGTASVVCLLNNFYPREAKVQWKVDNALQSGNSQESVTEQDSKDSTYSLSSTLTLSKADYEKHKVYACEVTHQGLSSPVTKSFNRGECGGGGSGGGGSGGGGSGGGGSEVQLVESGGGLVQPGGSLRLSCAASGFTFTNYGLHWVRQAPGKGLEWVSSISPSGGVTYYRDSVKGRFTISRDNSKNTLYLQMNSLRAEDTAVYYCAKPFLGWGGANWIAHWGQGTLVTVSSGGGGSGGGGSGGGGSGGGGSDIQMTQSPSSLSASVGDRVTITCLASEDISNDLAWYQQKPGKAPKLLIYFVDRLLDGVPSRFSGSGSGTDFTLTISSLQPEDFATYYCQQSYKYPPTFGQGTKLEIK
notes: Ly312 HC (IgG1 mutated Fc) + Ly312 LC-TM559 scFv VH-VL
Consider B13, for which the binding result is on record as “binds”.
